Test results published in publication PMC12693511, “Processing of DNA single-strand breaks with oxidatively damaged ends by LIG1”.

Experiments:
[1] = target: T1, LIG1 EE/AA (C-terminal, Δ261) (UniProt P18858 262-919, E346A;E592A); assay: X-ray crystallography; AMP, pre-catalytic (DNA-AMP); EDTA, no metal added; BLI: 20 mM HEPES pH 7.4, 200 mM NaCl, 0.5% BSA, 0.05% Tween 20, 40 nM DNA loaded, sensors hydrated at 20 C; crystals: 20 mM Tris-HCl pH 7.0, 200 mM NaCl, 1 mM DTT, 1 mM EDTA, 1 mM ATP, 1.4:1 DNA:protein, 20 C; conditions: protein: recombinant, tags: 6xHis, nicked duplex, blunt outer ends
T1 sequence (P18858 262-919 E346A/E592A): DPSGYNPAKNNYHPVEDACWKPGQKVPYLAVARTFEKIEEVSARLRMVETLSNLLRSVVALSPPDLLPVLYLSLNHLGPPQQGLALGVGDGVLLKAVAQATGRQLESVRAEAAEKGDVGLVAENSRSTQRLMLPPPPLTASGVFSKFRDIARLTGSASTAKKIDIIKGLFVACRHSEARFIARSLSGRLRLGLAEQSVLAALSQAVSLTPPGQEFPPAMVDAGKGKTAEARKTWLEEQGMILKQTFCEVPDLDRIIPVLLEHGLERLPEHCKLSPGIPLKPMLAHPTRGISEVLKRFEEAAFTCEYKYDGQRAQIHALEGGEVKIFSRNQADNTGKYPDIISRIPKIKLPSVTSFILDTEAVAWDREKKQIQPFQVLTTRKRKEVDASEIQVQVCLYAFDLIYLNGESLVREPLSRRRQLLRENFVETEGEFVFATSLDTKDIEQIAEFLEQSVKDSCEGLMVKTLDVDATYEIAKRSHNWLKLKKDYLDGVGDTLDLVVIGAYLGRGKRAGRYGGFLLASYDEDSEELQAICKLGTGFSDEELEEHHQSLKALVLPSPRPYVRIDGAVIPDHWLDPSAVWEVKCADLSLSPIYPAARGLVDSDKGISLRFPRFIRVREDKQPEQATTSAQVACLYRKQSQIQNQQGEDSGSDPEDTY

[2] = target: T1, LIG1 EE/AA (C-terminal, Δ261); assay: X-ray crystallography; post-catalytic, nick sealed; EDTA, no metal added; BLI: 20 mM HEPES pH 7.4, 200 mM NaCl, 0.5% BSA, 0.05% Tween 20, 40 nM DNA loaded, sensors hydrated at 20 C; crystals: 20 mM Tris-HCl pH 7.0, 200 mM NaCl, 1 mM DTT, 1 mM EDTA, 1 mM ATP, 1.4:1 DNA:protein, 20 C; conditions: protein: recombinant; tags: 6xHis; nicked duplex, blunt outer ends; 8-oxorG:A Hoogsteen pair; nick sealed in crystal
LIG1 wild-type = LIG1 wild-type (UniProt P18858 262-919); assay: X-ray crystallography; AMP, pre-catalytic (DNA-AMP); EDTA, no metal added; BLI: 20 mM HEPES pH 7.4, 200 mM NaCl, 0.5% BSA, 0.05% Tween 20, 40 nM DNA loaded, sensors hydrated at 20 C; crystals: 20 mM Tris-HCl pH 7.0, 200 mM NaCl, 1 mM DTT, 1 mM EDTA, 1 mM ATP, 1.4:1 DNA:protein, 20 C; conditions: protein: recombinant; tags: 6xHis; nicked duplex, blunt outer ends; 8-oxoG:C Watson-Crick pair at nick
LIG1 wild-type, sequence (P18858 262-919): as the sequence (P18858 262-919 E346A/E592A) above, with A85E, A331E counted along it

B1: nick 3'-8-oxodG:A (dsDNA)
DNA 1: GCTGATGCGTG
DNA 2: GTCGGAC
DNA 3: GTCCGACAACGCATCAGC
modifications: 8-oxodG at 3' end of strand 1 (nt 11); 5'-phosphate on strand 2 (5'-AMP in crystal)
[1]; 8-oxoG:A Hoogsteen pair at nick
  binding result: binds

B2: nick 3'-8-oxorG:A (mixed)
DNA 1: GCTGATGCGTG
DNA 2: GTCGGAC
DNA 3: GTCCGACAACGCATCAGC
modifications: 8-oxo-riboG at 3' end of strand 1 (nt 11), rest DNA; 5'-phosphate on strand 2; strands 1 and 2 ligated in the crystal
[2]
  binding result: binds

B3: nick 3'-8-oxorG:C (mixed)
DNA 1: GCTGATGCGTG
DNA 2: GTCGGAC
DNA 3: GTCCGACCACGCATCAGC
modifications: 8-oxo-riboG at 3' end of strand 1 (nt 11), rest DNA; 5'-phosphate on strand 2 (5'-AMP in crystal)
[1]; 8-oxorG:C Watson-Crick pair at nick
  binding result: binds

B4: nick 3'-8-oxodG:C (dsDNA)
DNA 1: GCTGATGCGTG
DNA 2: GTCGGAC
DNA 3: GTCCGACCACGCATCAGC
modifications: 8-oxodG at 3' end of strand 1 (nt 11); 5'-phosphate on strand 2 (5'-AMP in crystal)
[1]; 8-oxoG:C Watson-Crick pair at nick
  binding result: binds
LIG1 wild-type
  binding result: binds
